What is called koff is the rate constant with which the complex falls apart. In general, Kd refers to the concentration at which binding is half-saturated. A lower Kd goes with a tighter complex. The kon is a measure of how fast the partners come together. Lower therefore signals slower complex formation.

This passage reports koff, Kd and kon results from paper PMC3546355.

For this test, the target named is Cry1Aa toxin-binding region of BtR175 (BtR175-TBR) (Bombyx mori) (UniProt Q9XY09). Nature of the test: SPR.

“Cry1Aa loop 3 mutant Q^439PRG^442 (from UniProt P0A366 1-1176) (ligand)” showed a koff of 0.00162 s⁻¹. The substance “Cry1Aa loop mutant D^439TGN^442 (from UniProt P0A366 1-1176) (ligand)” had a Kd of 13.5 nM and a koff of 0.00162 s⁻¹. As for “Cry1Aa loop mutant A^310QMA^313 (from UniProt P0A366 1-1176) (ligand)”, the Kd is 16 nM.

With “Cry1Aa loop mutant P^367RRP^370 (from UniProt P0A366 1-1176) (ligand)”, the Kd was found to be 12.1 nM. The Kd values of the last two substances are within 1.5-fold of each other. “Cry1Aa loop mutant V^443ELL^446 (from UniProt P0A366 1-1176) (ligand)” came in with a Kd of 20.4 nM, a koff of 0.00272 s⁻¹ and a kon of 133000 M⁻¹ s⁻¹. “Cry1Aa loop mutant L^367PRP^370 (from UniProt P0A366 1-1176) (ligand)” displayed a Kd of 13.3 nM. The substance “Cry1Aa loop mutant E^439PPA^442 (from UniProt P0A366 1-1176) (ligand)” had a Kd of 11.6 nM and an on-rate constant (kon) of 121000 M⁻¹ s⁻¹. For “Cry1Aa loop 3 mutant H^439MPR^442 (from UniProt P0A366 1-1176) (ligand)”, the koff came to 0.00105 s⁻¹.

“Cry1Aa loop mutant I^443VPV^446 (from UniProt P0A366 1-1176) (ligand)” returned a Kd of 19.9 nM, a koff of 0.00316 s⁻¹ and an on-rate (kon) of 158000 M⁻¹ s⁻¹. In the case of “Cry1Aa loop mutant S^371APN^374 (from UniProt P0A366 1-1176) (ligand)”, the Kd came to 13.3 nM. With “Cry1Aa loop mutant T^439LRT^442 (from UniProt P0A366 1-1176) (ligand)”, the Kd is 10.5 nM, the koff stood at 0.00158 s⁻¹ and the kon came out at 151000 M⁻¹ s⁻¹.

The substance “Cry1Aa loop mutant S^435VVG^438 (from UniProt P0A366 1-1176) (ligand)” yielded a Kd of 19.9 nM and a koff of 0.00379 s⁻¹. “Cry1Aa loop mutant G^435LVG^438 (from UniProt P0A366 1-1176) (ligand)”: the Kd was 13.5 nM and the koff stood at 0.00559 s⁻¹.
